The chains are these.
B1: CPEB4^NES peptide used for crystallization (GGSY-379RTFDMHSLESSLIDI393) (peptide)
peptide: GGSYRTFDMHSLESSLIDI
notes: residues before the NES that are left after TEV cleavage; NES of CPEB4, residues 379-393; source: E. coli BL-21(DE3), MBP fusion purified (amylose, ion exchange), cleaved with TEV, peptide isolated by gel filtration; not shown: MBP, N-terminal, cleaved
B2: PKI^NES-Flip3 peptide used for crystallization (peptide)
peptide: GGSYRSFDMNELALKLAGLD
notes: PKI NES helix with the ΦXΦ motif moved to the N-terminus and made larger (FDM), after GGSY left from TEV cleavage; also called PKI-Flip3; source: E. coli BL-21(DE3), MBP fusion purified (amylose, ion exchange), cleaved with TEV, peptide isolated by gel filtration; not shown: MBP, N-terminal, cleaved
B3: CPEB4^NES-R peptide used for crystallization (peptide)
peptide: GGSYRMIDILSSELSHMDFTR
notes: also called CPEB4-R; source: E. coli BL-21(DE3), MBP fusion purified (amylose, ion exchange), cleaved with TEV, peptide isolated by gel filtration; not shown: MBP, N-terminal, cleaved
B4: hRio2^NES peptide used for crystallization (GGSY-389RSFEMTEFNQALEEI403) (peptide)
peptide: GGSYRSFEMTEFNQALEEI
modifications: not fully specified (residue 9); printed as GGSY^389^RSFEMTEFNQALEEI^403^
notes: residues before the NES that are left after TEV cleavage; NES of human Rio2 (hRio2), residues 389-403; The text speaks of a native and of a selenomethionine peptide; Residues 391-403 modelled; also called Selenomethione-hRio2; source: E. coli BL-21(DE3), MBP fusion purified (amylose, ion exchange), cleaved with TEV, peptide isolated by gel filtration; not shown: MBP, N-terminal, cleaved
B5: hRio2^NES-R peptide used for crystallization (peptide)
peptide: GGSYGKIEELAQNFETMEFSR
modifications: not fully specified (residue 17)
notes: also called Selenomethione-hRio2-R; source: E. coli BL-21(DE3), MBP fusion purified (amylose, ion exchange), cleaved with TEV, peptide isolated by gel filtration; not shown: MBP, N-terminal, cleaved
B6: FITC-PKI^NES peptide (FITC-SGNSNELALKLAGLDINKT) (peptide)
peptide: {FITC}-SGNSNELALKLAGLDINKT
notes: also called fluorescent-labeled PKI^NES peptide; source: synthetic peptide (GenScript)

The source of these data is article PMC4596688, “Structural determinants of nuclear export signal orientation in binding to exportin CRM1” (eLife, 2015).

Ends that are not written are not given here. * marks the point of attachment. FITC = O=C1OC2(c3ccc(O)cc3Oc3cc(O)ccc32)c2ccc(NC(=S)*)cc21

The target of one assay is CRM1* (ScCRM1 residues 1-1058, Δ377-413, V441D, 537DLTVK541 to GLCEQ) (Saccharomyces cerevisiae, UniProt P30822 1-1058, Δ377–413 | V441D | 537DLTVK541 to GLCEQ). In words: crystal structure; quaternary CRM1*-RanGppNHp-RanBP1 (Yrb1p)-NES peptide complexes, assembled 1:3:10 and purified by gel filtration in GF buffer; crystals in 17% PEG3350, 100 mM Bis-Tris pH 6.4, 200 mM ammonium nitrate, 10 mM spermine HCl. As to conditions: both partners purified. Background: In gel filtration, larger molecules generally elute earlier.
On to B1, for which the binding result is “binds”. Still for that read-out and setting: the same measure for B2: “binds”.

As to B3, the binding result is listed as “binds”. Regarding B4, the binding result was “binds”. Still for that read-out and setting: the same measure for B5: “binds”.

For a further assay, the target named is Full-length human CRM1 (HsCRM1) (human, UniProt O14980 1-1071). In words: differential bleaching monitored with a microscale thermophoresis instrument (direct titration); HsCRM1 serially diluted from 40 μM to 1.2 nM, mixed 1:1 with 120 μM ScRan-GTP and 40 nM FITC-PKI^NES; TB buffer with 15% glycerol, 0.05% Tween-20; 1 hr, room temperature. Particulars: both partners purified. In general terms: MST reads how a fluorescent partner responds to local heating, with and without ligand.
Full-length human CRM1 (HsCRM1), sequence (O14980 whole entry): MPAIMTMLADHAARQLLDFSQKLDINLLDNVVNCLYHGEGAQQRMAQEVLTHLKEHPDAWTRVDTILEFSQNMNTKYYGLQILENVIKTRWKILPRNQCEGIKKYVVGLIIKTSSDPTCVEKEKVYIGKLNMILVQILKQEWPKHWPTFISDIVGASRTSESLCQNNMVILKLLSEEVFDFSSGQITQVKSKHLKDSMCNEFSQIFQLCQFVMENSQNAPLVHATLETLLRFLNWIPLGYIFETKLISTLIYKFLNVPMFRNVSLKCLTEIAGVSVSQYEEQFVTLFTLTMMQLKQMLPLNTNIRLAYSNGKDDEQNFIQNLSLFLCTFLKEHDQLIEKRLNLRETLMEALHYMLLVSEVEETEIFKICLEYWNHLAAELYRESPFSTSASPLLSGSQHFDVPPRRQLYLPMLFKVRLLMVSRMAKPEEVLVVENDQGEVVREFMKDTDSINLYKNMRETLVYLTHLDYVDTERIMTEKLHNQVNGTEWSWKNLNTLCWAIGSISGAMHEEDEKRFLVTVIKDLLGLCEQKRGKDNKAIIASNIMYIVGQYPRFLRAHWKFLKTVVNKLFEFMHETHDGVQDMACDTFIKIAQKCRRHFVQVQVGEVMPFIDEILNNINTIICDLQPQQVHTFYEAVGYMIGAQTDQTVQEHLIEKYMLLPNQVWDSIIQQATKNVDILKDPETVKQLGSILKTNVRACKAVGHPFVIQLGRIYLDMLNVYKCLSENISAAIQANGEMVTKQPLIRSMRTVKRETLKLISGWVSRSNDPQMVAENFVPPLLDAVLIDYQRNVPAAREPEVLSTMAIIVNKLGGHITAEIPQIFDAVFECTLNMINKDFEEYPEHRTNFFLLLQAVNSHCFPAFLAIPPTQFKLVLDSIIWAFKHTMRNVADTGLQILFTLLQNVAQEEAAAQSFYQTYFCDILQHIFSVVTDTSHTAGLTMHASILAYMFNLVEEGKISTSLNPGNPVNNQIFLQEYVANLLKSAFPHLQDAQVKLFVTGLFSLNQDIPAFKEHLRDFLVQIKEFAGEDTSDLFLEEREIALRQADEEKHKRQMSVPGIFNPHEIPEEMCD
As for B6, the binding result was “binds”.
